Source: patent publication US9789130B2, “Method for blocking HIV entry into dendritic cells by inhibiting sialoadhesin-sialyllactose binding interactions with gangliosides” (LABORATORIOS DEL DR. ESTEVE, S.A., priority 2011, dated 2017)

B1: purified Siglec-7: human recombinant Siglec-7 protein used to pre-treat mAb 7D2 (protein, UniProt Q9Y286 19-467, looked up)
Sialic acid-binding Ig-like …: QKSNRKDYSLTMQSSVTVQEGMCVHVRCSFSYPVDSQTDSDPVHGYWFRAGNDISWKAPVATNNPAWAVQEETRDRFHLLGDPQTKNCTLSIRDARMSDAGRYFFRMEKGNIKWNYKYDQLSVNVTALTHRPNILIPGTLESGCFQNLTCSVPWACEQGTPPMISWMGTSVSPLHPSTTRSSVLTLIPQPQHHGTSLTCQVTLPGAGVTTNRTIQLNVSYPPQNLTVTVFQGEGTASTALGNSSSLSVLEGQSLRLVCAVDSNPPARLSWTWRSLTLYPSQPSNPLVLELQVHLGDEGEFTCRAQNSLGSQHVSLNLSLQQEYTGKMRPVSGVLLGAVGGAGATALVFLSFCVIFIVVRSCRKKSARPAADVGDIGMKDANTIRGSASQGNLTESWADDNPRHHGLAAHSSGEEREIQYAPLSFHKGEPQDLSGQEATNNEYSEIKIPK
B2: CD83: human recombinant CD83 protein used to pre-treat mAb 7D2 (protein, UniProt Q01151 20-205, looked up)
CD83 antigen: TPEVKVACSEDVDLPCTAPWDPQVPYTVSWVKLLEGGEERMETPQEDHLRGQHYHQKGQNGSFDAPNERPYSLKIRNTTSCNSGTYRCTLQDPDGQRNLSGKVILRVTGCPAQRKEETFKKYRAEIVLLLALVIFYLTLIIFTCKFARLQSIFPDFSKAGMERAFLPVTSPNKHLGLVTPHKTELV

Molecular target: T1, Siglec-1 (Homo sapiens, UniProt Q9BZZ2)
T1 construct: Siglec-1 expressed in LPS mDCs capture distinct ganglioside containing vesicles; endogenous in cells; host or cells: LPS-matured monocyte-derived dendritic cells (LPS mDCs) from donor PBMCs
T1 sequence (Q9BZZ2 20-1709): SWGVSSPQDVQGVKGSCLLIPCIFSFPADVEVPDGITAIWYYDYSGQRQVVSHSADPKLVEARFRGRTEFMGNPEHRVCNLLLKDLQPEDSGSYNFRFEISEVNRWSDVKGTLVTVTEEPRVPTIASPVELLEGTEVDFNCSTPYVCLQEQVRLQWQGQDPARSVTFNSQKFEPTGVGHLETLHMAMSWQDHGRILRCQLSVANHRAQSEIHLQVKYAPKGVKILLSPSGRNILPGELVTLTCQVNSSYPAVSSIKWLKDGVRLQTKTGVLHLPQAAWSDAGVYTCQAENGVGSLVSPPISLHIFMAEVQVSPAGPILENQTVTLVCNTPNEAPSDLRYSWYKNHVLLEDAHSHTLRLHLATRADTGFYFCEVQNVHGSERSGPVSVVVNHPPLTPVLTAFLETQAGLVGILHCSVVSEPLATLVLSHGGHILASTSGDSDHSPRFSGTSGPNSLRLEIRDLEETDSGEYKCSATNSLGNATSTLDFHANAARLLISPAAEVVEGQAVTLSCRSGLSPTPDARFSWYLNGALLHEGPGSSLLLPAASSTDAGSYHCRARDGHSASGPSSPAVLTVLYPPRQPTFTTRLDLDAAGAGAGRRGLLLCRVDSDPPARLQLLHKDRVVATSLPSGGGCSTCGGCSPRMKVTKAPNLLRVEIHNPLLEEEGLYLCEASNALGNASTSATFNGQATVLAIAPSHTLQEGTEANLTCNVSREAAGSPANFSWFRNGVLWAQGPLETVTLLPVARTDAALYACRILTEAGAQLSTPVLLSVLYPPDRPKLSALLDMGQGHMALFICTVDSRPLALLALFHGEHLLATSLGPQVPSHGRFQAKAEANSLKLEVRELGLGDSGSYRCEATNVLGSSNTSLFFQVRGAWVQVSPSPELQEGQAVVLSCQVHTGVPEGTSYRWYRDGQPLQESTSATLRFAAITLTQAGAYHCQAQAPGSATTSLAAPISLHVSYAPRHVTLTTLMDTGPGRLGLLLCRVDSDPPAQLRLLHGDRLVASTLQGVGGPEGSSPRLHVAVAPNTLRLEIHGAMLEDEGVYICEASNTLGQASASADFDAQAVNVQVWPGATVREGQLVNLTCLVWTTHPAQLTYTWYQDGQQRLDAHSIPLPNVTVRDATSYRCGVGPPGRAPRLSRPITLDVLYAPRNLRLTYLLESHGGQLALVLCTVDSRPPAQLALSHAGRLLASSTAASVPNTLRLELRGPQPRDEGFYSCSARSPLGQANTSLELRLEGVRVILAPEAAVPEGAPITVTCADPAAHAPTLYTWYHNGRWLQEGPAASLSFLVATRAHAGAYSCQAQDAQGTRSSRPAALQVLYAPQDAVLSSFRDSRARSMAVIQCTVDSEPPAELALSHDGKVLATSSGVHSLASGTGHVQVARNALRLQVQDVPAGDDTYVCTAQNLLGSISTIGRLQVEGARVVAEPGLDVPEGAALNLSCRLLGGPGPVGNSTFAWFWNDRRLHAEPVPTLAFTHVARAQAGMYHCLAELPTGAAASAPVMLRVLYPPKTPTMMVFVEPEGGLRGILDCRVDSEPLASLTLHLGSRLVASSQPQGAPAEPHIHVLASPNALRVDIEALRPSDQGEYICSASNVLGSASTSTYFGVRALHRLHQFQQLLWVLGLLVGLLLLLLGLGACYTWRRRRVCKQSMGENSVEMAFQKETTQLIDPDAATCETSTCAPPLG
Test: VLP capture by LPS mDCs pre-incubated with α-Siglec-1 mAbs
Format: cell-based
Conditions: 2 μg/ml mAb 7D2 treated with at least 100-fold molar excess of human recombinant protein
Experimental: FIG. 11. Siglec-1 expressed in LPS mDCs capture distinct ganglioside containing vesicles, such as HIV-1 viral-like particles, liposomes, and exosomes. Capture of VLPHIV-Gag-eGFP by LPS mDCs that had been pre-incubated with decreasing concentrations of α-Siglec-1 mAb 7D2 before VLP exposure for 30 min at 37° C.
FIG. 12. Capture of VLPHIV-Gag-eGFP by LPS mDCs that had been pre-incubated with or without 2 μg/ml of α-Siglec-1 mAb 7D2 previously treated or not with at least a 100-fold molar excess of the indicated human recombinant proteins. Of note, Siglec-14 shares 100% of amino acid homology with Siglec-5 in the V-set domain.
FIG. 13. Blocking effect of α-Siglec-1 mAb 7-239. (A) Capture of VLPHIV-Gag-eGFP by LPS mDCs that had been pre-incubated with decreasing concentrations of α-Siglec-1 mAb 7-239 before VLP exposure for 30 min at 37° C. […] (B) Capture of VLPHIV-Gag-eGFP by LPS mDCs that had been pre-incubated with 10 μg/ml of the indicated mAbs before VLP exposure for 3 h at 37° C.

| Molecule | VLP capture by LPS mDCs with mAb 7D2 pre-incubated with purified protein |
| --- | --- |
| B1 | had no effect |
| B2 | had no effect |
